Measurements: IntAct's records for PubMed 19549854

B1: [PIN+] prion protein RNQ1 (Saccharomyces cerevisiae), P25367 (parent)
chain: MDTDKLISEAESHFSQGNHAEAVAKLTSAAQSNPNDEQMSTIESLIQKIAGYVMDNRSGGSDASQDRAAGGGSSFMNTLMADSKGSSQTQLGKLALLATVMTHSSNKGSSNRGFDVGTVMSMLSGSGGGSQSMGASGLAALASQFFKSGNNSQGQGQGQGQGQGQGQGQGQGSFTALASLASSFMNSNNNNQQGQNQSSGGSSFGALASMASSFMHSNNNQNSNNSQQGYNQSYQNGNQNSQGYNNQQYQGGNGGYQQQQGQSGGAFSSLASMAQSYLGGGQTQSNQQQYNQQGQNNQQQYQQQGQNYQHQQQGQQQQQGHSSSFSALASMASSYLGNNSNSNSSYGGQQQANEYGRPQQNGQQQSNEYGRPQYGGNQNSNGQHESFNFSGNFSQQNNNGNQNRY

Variants of: B1
Details: with mas5_yeast YDJ1, P25491
Chain of mas5_yeast YDJ1, P25491 (P25491 whole entry): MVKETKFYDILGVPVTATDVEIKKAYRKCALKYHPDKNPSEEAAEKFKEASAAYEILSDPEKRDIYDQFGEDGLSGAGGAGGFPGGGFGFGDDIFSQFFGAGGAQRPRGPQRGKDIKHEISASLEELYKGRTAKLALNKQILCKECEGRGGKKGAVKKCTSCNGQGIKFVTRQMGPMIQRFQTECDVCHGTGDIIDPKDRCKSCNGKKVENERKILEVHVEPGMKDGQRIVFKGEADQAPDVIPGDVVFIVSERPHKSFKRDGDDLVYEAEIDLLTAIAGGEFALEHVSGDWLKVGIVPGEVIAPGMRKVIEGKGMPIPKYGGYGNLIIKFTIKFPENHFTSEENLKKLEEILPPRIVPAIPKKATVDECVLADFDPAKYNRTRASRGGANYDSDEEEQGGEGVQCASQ

Variant	effect of a mutation on the interaction
N253Y	disrupting interaction
Q257Y	disrupting interaction
